Source: PMC7458484 (ACS Nano, 2020)

Molecular target: the molecule itself
Test: SAXS; steady state, flow cell; 1.14 mg/mL disassembled Cp185 in disassembly buffer (1.5 M GuHCl, 0.5 M LiCl, 50 mM HEPES pH 7.5, 2 mM DTT); monomer to dimer

B1: full-length hepatitis B virus core protein Cp185 (natural protein)
chain: MDIDPYKEFGATVELLSFLPSDFFPSVRDLLDTASALYREALESPEHCSPHHTALRQAILCWGELMTLATWVGNNLEDPASRDLVVNYVNTNMGLKIRQLLWFHISCLTFGRETVLEYLVSFGVWIRTPPAYRPPNAPILSTLPETTVVRRRDRGRSPRRRTPSPRRRRSQSPRRRRSQSRESQC
stoichiometry N: 2
